The target in one data set is T1, EcxR (Ehrlichia chaffeensis) (UniProt Q2GG40).
T1 sequence: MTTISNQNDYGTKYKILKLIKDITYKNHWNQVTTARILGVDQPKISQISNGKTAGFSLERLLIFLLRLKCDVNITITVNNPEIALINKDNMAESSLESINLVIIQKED
The data set is described as follows: EMSA. As to conditions: EMSA: 10 mM Tris-HCl pH 7.5, 50 mM KCl, 5 mM MgCl2, 2.5% glycerol, 1 mM DTT, 50 ug/mL poly dI-dC, 20 fmol probe, room temperature 25 min (20 min in Fig …). For orientation: Mobility shift assays separate free from complexed probe on a gel.
Take “ATATAACCTAATAGTGACAAATAAATTAACAATAGTAGAAGTGTCATATAAAAGCAAGTCAGAATATAAATTTTTGTATAAAATATCGGTAACTTTTGTAAGGAAAATTTAATATATTACGTCAG (double strand) [p28-Omp19-P3]”: the binding result is recorded as “binds”.

Turning to “GACTCTAGACTTTTAATTTTATTATTGCCACATGTTAAAAATAATCTAAACTTGTTTTTATTATTGCTGCAGGTAAATAAAAATAGTGGCAAAAGAATGTAGCAATAAGAGGGGGGGGGGGGGGACTAGTTTATAAGTGC (double strand) [p28-Omp19-P1]”, the binding entry is “no binding”.

Consider “GGATAAGTACTTTAGCAAGTGGTAAAAGCAAGTCTACTCATATTTTTATTAATTAAGTAGTAAAGTTAACTATAGATTTTATTAAAATTTTTATTCTAATCACTTTAAATATCAATTACTTTTGTTGTAAATTTGAAAGAAATTTTATATTCTAGAC (double strand) [p28-Omp14-P5]”, for which the binding result is listed as “no binding”.

Regarding “GGTGTTTTTATAATTTTATTACTAAGATATTTTTTTATTAATAACTATATGCCAATACAGATAGTATAAGTATCTTATAATAAATCCATCATCTTAATGTAAGTAATACATATAACTAATAACAATAATATATTAACATTTTTATAGAATATCTATCATAATCAAACATTAACTAAATTCTCTACTAGCAGTAAATTGAATATCTACAATTTACACGTTCTACTGTTTTGCTTGCCAACTTAATTGATACTGCTTATCATCTGAATATCAAAAGATGATAGGGTACTGT (double strand) [clpB promoter EMSA probe]”, the binding result is “binds”.

Regarding “GTTTTCTGCTTTATTAGAATGATTCCCAAATAAATTTTAATTAATTACTGTTCCGTATTTATTAATATATGTTATAATGTAATTAAATAAGGATACTAGATTTGCTCATAATGCATGTAC (double strand) [p28-Omp14-P3]”, the binding result was “binds”.

With “CAGGAGTTACTCCATGTGCAAGTAGTATCTTGTAAACACTAGTGTCTTTAACAACTGCAAGAGCTTGTAATAATCTCTCCACAGTTACATAAGTATCCTGATTCCTTTTTGCTAAACTAATAGCTTCTTCTAAAACCTGAGCCATTTCTTTTGATAAATGTATATGACCACTACCACTTCCACTTACAACAGGTAATTTACTTAAGGAGAGTTTTATATCACTGTATATCTTATCAATATCACATCCACATGAAGTCAGCAACA (double strand) [clpB-ORF]”, the binding result is “no binding”.

On to “TAACTTACTTAAAAAATTAACTACTTAAATATCAACGATGTTTTCAGTATCAAGTCAATTGATTTTTTATGTGTTATGTAAACTGTTACAGAGTAATATAATATTTCTACTGGGTCCTATAAAGTTCTAACCTTGTAAACATTTGTGCAATATGTATTATAAAATTTATTGATTGATACTTGAAATTAGATTTCTTGATATTATATATGATCTTAGCTAGTAGTATCTGATGCTACTGATAATTTATTTTTTTATAGAGGTAG (double strand) [groES/L promoter EMSA probe]”, for which the binding entry was “binds”.

With “GGTTTAGCCATTTTAAATGTGTTTAAAAAGAAATCTTTTTGACATTATTGTAAACTTATGATTTTTATTAAGGGGAAGAGTGAACAAAATACTGTTATTAGAAGTTTACAGAAAGTTAACTG (double strand) [p28-Omp14-P2]”, the binding entry is “no binding”.

With “CTTTTGTAAGGAAAATTTAATATATTACGTCAGGTAAGTAATAGCAAAAAAACTGGTTAAGTATAGTATCATGTGTAAAGGTGAGAAAAACAGCAC (double strand) [p28-Omp19-P2]”, the binding entry is recorded as “binds”.

“GATTAATAGATTCTAGGGAACTCTCTGCCATATTGTCTTTGTTAATTAATGCAATTTCTGGGTTATTGACAGTGATTGTTATATTCACATCACATTTTAGACGTAACAAAAATATAAGTAAACGTTCTAATGAAAATCCTGCTGTTTTACCATTACTAATCTGAGATATTTTTGGTTGGTCTACGCCCAGTATCCTTGCTGTGGTTACTTGGTTCCAGTGATTCTTA (double strand) [ecxR-ORF]”: the binding entry is “no binding”.

In the case of “GTTCCGTATTTATTAATATATGTTATAATGTAATTAAATAAGGATACTAGATTTGCTCATAATGCATGTACTGAATTTGTGATTTGAAATAACAAGACTTAAATGTCGAATTTAGCTTCTGTCCTAGTGGATAAGTACTTTAGCAAGTGGTAAAAGCAAGTCTACTCATATTTTTATTAATTAAGTAGTAAAGTTAACTATAG (double strand) [p28-Omp14-P4]”, the binding entry was “binds”.

On to “TTGCTCAACCATAAAATAATGGGAAATTACCTTTTCTAGGAAGTTTCTCATTATTTAACAGTTAACTTTCTGTAAACTTCTAATAACAGTATTTTGTTCACTCTTCCCCTTAATAAAAATCATAAGTTTACAATAATGTCAAAAAGATTTCTTTTTAAACACATTTAAAATGGCTAAACC (double strand) [p28-Omp14-P1]”, for which the binding entry is on record as “binds”.

Turning to “GTACCTAAATCTATACCTATAACAGCCATAAATAGCCCCCTTACATAAAAATCAAAACTATAATCACAGATATAATAACCAAATCATAAGATTACAACCCCATTTAACACAAGTTCATAAATTTATGAA (double strand) [dnaK promoter EMSA probe]”, the binding entry is reported as “binds”.

The next data set concerns the target T1, EcxR (Ehrlichia chaffeensis). The data set is described as follows: Southwestern blot. The note with it: EMSA: 10 mM Tris-HCl pH 7.5, 50 mM KCl, 5 mM MgCl2, 2.5% glycerol, 1 mM DTT, 50 ug/mL poly dI-dC, 20 fmol probe, room temperature 25 min (20 min in Fig …).
As to “GGTGTTTTTATAATTTTATTACTAAGATATTTTTTTATTAATAACTATATGCCAATACAGATAGTATAAGTATCTTATAATAAATCCATCATCTTAATGTAAGTAATACATATAACTAATAACAATAATATATTAACATTTTTATAGAATATCTATCATAATCAAACATTAACTAAATTCTCTACTAGCAGTAAATTGAATATCTACAATTTACACGTTCTACTGTTTTGCTTGCCAACTTAATTGATACTGCTTATCATCTGAATATCAAAAGATGATAGGGTACTGT (double strand) [clpB promoter (SWB probe)]”, the binding result is recorded as “binds”.

Take “CTACCTCTATAAAAAAATAAATTATCAGTAGCATCAGATACTACTAGCTAAGATCATATATAATATCAAGAAATCTAATTTCAAGTATCAATCAATAAATTTTATAATACATATTGCACAAATGTTTACAAGGTTAGAACTTTATAGGACCCAGTAGAAATATTATATTACTCTGTAACAGTTTACATAACACATAAAAAATCAATTGACTTGATACTGAAAACATCGTTGATATTTAAGTAGTTAATTTTTTAAGTAAGTTAGCATGCGCTG (double strand) [groES/L promoter (SWB probe)]”: the binding entry is “binds”.

With “GTACCTAAATCTATACCTATAACAGCCATAAATAGCCCCCTTACATAAAAATCAAAACTATAATCACAGATATAATAACCAAATCATAAGATTACAACCCCATTTAACACAAGTTCATAAATTTATGGCATGCGCTG (double strand) [dnaK promoter (SWB probe)]”, the binding entry is listed as “binds”.

In the case of “TACCCGGACAAACTGACTTTCATGTTTAATATAAATTATTGATCCAATCAAGCTAAAAAGTAAATAAATTTTATCTTATATTTCATAAAGCATAATATGTTATTTCTGTATATTATATAATTAGTATACTATTCCAGCAAACTAGATAGAATATATCCATTAAATAACTATTGCATTCACTTTATGCATGATTTATCTTACATAGGTTGCTTTGT (double strand) [tr1 promoter (SWB probe)]”, the binding entry is recorded as “binds”.

The next data set addresses T2, Tr1 (Ehrlichia chaffeensis) (UniProt Q2GF81).
T2 sequence: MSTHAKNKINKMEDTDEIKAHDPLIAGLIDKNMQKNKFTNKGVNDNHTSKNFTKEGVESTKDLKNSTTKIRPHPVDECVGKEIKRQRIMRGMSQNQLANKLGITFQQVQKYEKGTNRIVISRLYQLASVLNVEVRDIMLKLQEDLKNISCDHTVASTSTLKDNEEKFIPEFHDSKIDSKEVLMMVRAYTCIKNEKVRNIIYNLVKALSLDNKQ
The experiment in a line: Southwestern blot. As to conditions: EMSA: 10 mM Tris-HCl pH 7.5, 50 mM KCl, 5 mM MgCl2, 2.5% glycerol, 1 mM DTT, 50 ug/mL poly dI-dC, 20 fmol probe, room temperature 25 min (20 min in Fig …).
On to “TACCCGGACAAACTGACTTTCATGTTTAATATAAATTATTGATCCAATCAAGCTAAAAAGTAAATAAATTTTATCTTATATTTCATAAAGCATAATATGTTATTTCTGTATATTATATAATTAGTATACTATTCCAGCAAACTAGATAGAATATATCCATTAAATAACTATTGCATTCACTTTATGCATGATTTATCTTACATAGGTTGCTTTGT (double strand) [tr1 promoter (SWB probe)]”, for which the binding result is reported as “binds”.
